Reference: the supplement of paper PMC9170038

What was measured:
MS2 coat protein [1] = test: apparent KD of MS2 coat protein, switch ON state; designed switch direction (-1 OFF switch, 1 ON switch): -1; higher = weaker reporter binding; details: FMN input: 0 or 200 uM; Eterna round: R93 (includes R88 designs)
How it was run: (§1)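 Designed RNA switches, transcribed on-chip from Illumina sequencing clusters, were titrated with SNAP-549-labelled MS2 coat protein from 0.7 or 1.5 nM to 3 µM in twofold steps. The solution was 100 mM Tris-HCl pH 7.5, 80 mM KCl, 4 mM MgCl2, with constant ligand or without it. Apparent KD is the median over each design's normalised cluster binding-curve fits.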

MS2 coat protein [2] = test: apparent KD of MS2 coat protein, switch OFF state (with FMN for OFF switches, without FMN for ON switches); designed switch direction (-1 OFF switch, 1 ON switch): -1; higher = weaker reporter binding; details: FMN input: 0 or 200 uM; Eterna round: R93 (includes R88 designs)
How it was run: as §1

Row | Sequence | apparent KD of MS2 coat protein (MS2 coat protein [1]) | apparent KD of MS2 coat protein (MS2 coat protein [2])
1 | GCUUGGCAAGGAUAUACAUGAGGAUCACCCAUGUGAGAGAAAAAAGUGAGAAAGAAAAGUAGAAGGUGCUGAGG [salish99-ex3-109] | 0.0426 µM | 0.0822 µM
2 | AAGAACGUAGGAUAUACAUGAGGAUCACCCAUGUAAAAGAAAGAAAGGGAAAAGAAAAGUAGAAGGACGAAGAA [Hedjkheperre-setepenre Shoshenq I] | 0.0297 µM | 0.0779 µM
3 | AAAAGACAUGAGGAUCACCCAUGUCAGGAUAUGACUUGAAAAAUAAAAUAAAAACAUGUCAGAAGGGACAUGAA [Design 46: Sub-opt DB] | 0.0285 µM | 0.0252 µM
4 | AAAAUACAUGAGGAUCACCCAUGUGAGGAUAUGCAAAACCCAUAUAAAAAGGGAAAAAGCAGAAGGCACAAAAA [wbt round 1 mod 15] | 0.033 µM | 0.0529 µM
5 | AAAAAACAUGAGGAUCACCCAUGUCAGGAUAUCCGGUUCUUAAAAAAAAAGAGGCGUUGGAGAAGGGACAUUCC [Chica Displaced 12 - Jieux - Exclusion 1] | 0.0267 µM | 0.0417 µM
6 | AUCAUGUUAGGAUAUUAAAGAAAAGAAAAGAAAGAAAAGAAUAAGAAGGAACAUGAGGAUCACCCAUGUAAGAA [EteRNA is fun!] | 0.0304 µM | 0.0297 µM
7 | AGGAAACAUGAGGAUCACCCAUGUAAGGAUAUCAGAAAGAAAAGAAAAGAAAGAAGAAUGAGAAGGUACAAGAA [Horus Bird] | 0.0291 µM | 0.034 µM
8 | AAAAAACAUGAGGAUCACCCAUGUCAGGAUAUCUGUAUUCAAUCCUCGGAUUGAAUACAGAGAAGGGACAUGGG [Ex1: 601] | 0.0226 µM | 0.018 µM
9 | AGUGAGUGAGGAUAUGACUGAAGAAUAAAAGAAAUAACAAGUCAGAAGGCACAUGAGGAUCACCCAUGUACACA [May 60] | 0.0288 µM | 0.0256 µM
10 | GAAUGACUAGGAUAUACAUGAGGAUCACCCAUGUGUUAAAAUAAAUACACAAAAGAAAGUAGAAGGAGUCAAAG [Mat - Exclusion 3 - Mayanna mod - D126] | 0.021 µM | 0.0503 µM
11 | AAAAUGUCAGGAUAUGUAAAAAAAAAAAAAAAAAAAAAAAUACAGAAGGGACAUGAGGAUCACCCAUGUCAGGG [EX4 390: Minimal 2] | 0.113 µM | 0.079 µM
12 | AAAGGACAAGGAUAUACAUGAGGAUCACCCAUGUAAAAAACAUAAUAAAAGAACUUAUGUAGAAGGUGUCCAAA [69%, Moding Meechl, 8] | 0.0383 µM | 0.177 µM
13 | AAGAACGCAGGAUAUAUUAAGGGACAAAGAAGGAAGAAUAAACAUGAGGAUCACCCAUGUAGAAGGGCGAAGAA [JR_Exclusion2_Sub4] | 0.0494 µM | 0.0435 µM
14 | AGAUCAUCAGGAUAUACAUAGGUGAAAAAAGUAAAUCCACUACAUGAGGAUCACCCAUGUAGAAGGGAUGAUCA [Ex2 Design 176: Random 4] | 0.0391 µM | 0.0303 µM
15 | AAAAAGCGAGGAUAUACAUAGCUAAGACAUGUAAGCGAAAAACAUGAGGAUCACCCAUGUAGAAGGCGCAAAAA [Exclusion2-02] | 0.0168 µM | 0.0165 µM
16 | AAUAAGUGAGGAUAUGUGAAUAGAAGAUAAGAUACCCAAAAACAGAAGGCACAUGAGGAUCACCCAUGUAAAUA [JR_Exc004_Sub009] | 0.0337 µM | 0.0243 µM
17 | AAAAGACAUGAGGAUCACCCAUGUGAGGAUAUCGGAAAAGGAAAAAUAAAAAAGAAGACGAGAAGGCACACCAA [Mat - Exclusion 1 - Eli mod - D75] | 0.0439 µM | 0.0482 µM

Row | Sequence | apparent KD of MS2 coat protein (MS2 coat protein [1]) | apparent KD of MS2 coat protein (MS2 coat protein [2])
18 | CCUGUGUGAGGAUAUGGUAUAAAAAAAAAAAAAUAGCUCCUCCAGAAGGCACAUGAGGAUCACCCAUGUCGUGG [Jolly's Folly 17 - Jieux - Exclusion 4] | 0.0269 µM | 0.0571 µM
19 | AGAAAACAUGAGGAUCACCCAUGUCAGGAUAUCCAAAUAAAAAUAAAAUAAAAUAAAAGGAGAAGGGACAAAAG [May 1] | 0.0492 µM | 0.0669 µM
20 | CUCAAGUGAGGAUAUCAGUAGUAAAAAAAUAAAAUUACUACUGAGAAGGCACAUGAGGAUCACCCAUGUGCAAA [EX4 336: Super Stable 36] | 0.0196 µM | 0.017 µM
21 | AAACCACAUGAGGAUCACCCAUGUUAGGAUAUGAACGAAAAUAAAUAAAAAUAAAAGUUCAGAAGGGACAAAAA [66%, Wbt, 21] | 0.0215 µM | 0.0149 µM
22 | AAAAAGAGAGGAUAUACAUGAGGAUCACCCAUGUGAAAAAAAAAAAAAGGGAAAAGAUGUAGAAGGCUCAAAAA [65%, Moding Exclusion3-cac2, 16] | 0.0304 µM | 0.0321 µM
23 | AAAAGGUCAGGAUAUGCCCACCUGGUGGAAAAACCAGGUGGGCAGAAGGGACAUGAGGAUCACCCAUGUAAAAA [Excls4-Ii] | 0.0531 µM | 0.0782 µM
24 | AAUGGUGCAGGAUAUACAUGAGGAUCACCCAUGUACAUCAGACAUAUGGUCGAAGCAUGUAGAAGGGCACCAAA [Ex 3May 56] | 0.145 µM | 0.183 µM
25 | CAUAAACAUGAGGAUCACCCAUGUGAGGAUAUGAUAUUACUAGGACGGCUGUAAUCAAUCAGAAGGCACAUCAA [JR_Exc--1_Sub1206] | 0.0225 µM | 0.0415 µM
26 | AUAGGUCAAGGAUAUACAUGAGGAUCACCCAUGUAAAUAACUCCAUAAAACUCCACAAGUAGAAGGUGAAAUAA [JR_Exc003_Sub202] | 0.0179 µM | 0.0158 µM
27 | AGCUAGUCAGGAUAUACGAGAAUGAAAGAAGACGUGAAGGGACAUGAGGAUCACCCAUGUAGAAGGGACUAGCA [Diamond 25] | 0.0361 µM | 0.0803 µM
28 | AAGGAUCGAGGAUAUACAUAGAUACAGAUACAUGUAGAACUACAUGAGGAUCACCCAUGUAGAAGGCGAUCAUA [AJ 30] | 0.0239 µM | 0.0563 µM
29 | AGCUAGUCAGGAUAUACAAAGAUGUCGAAAGACGUCAAGGGACAUGAGGAUCACCCAUGUAGAAGGGACUAGCA [Mod of Janderson's WEB Mod v.3] | 0.0562 µM | 0.197 µM
30 | CUCAUGUCAGGAUAUCAGUAGUAAAAAAAUAAAAUUACUACUGAGAAGGGACAUGAGGAUCACCCAUGUAAAAA [EX4 363: Super Stable 63] | 0.0161 µM | 0.0232 µM
31 | AAUAAGUGAGGAUAUGGAAAUAGUAGAUAAGAUUCCCUAAACCAGAAGGCACAUGAGGAUCACCCAUGUAAAUA [JR_Exc004_Sub005] | 0.0387 µM | 0.0264 µM
32 | CUCAAGUAAGGAUAUGGAAGAAAAGAAGAGAAAGAAAAGAACCAGAAGGUACAUGAGGAUCACCCAUGUAAGAA [EteRNA is fun!] | 0.0372 µM | 0.0246 µM
33 | AAAAAACAUGAGGAUCACCCAUGUAAGGAUAUGUAAAACCCAUAUAAAAAGGGAAAAAACAGAAGGUGCAAAAA [wbt round 1 mod 6] | 0.0351 µM | 0.0304 µM
34 | CAGAGACAUGAGGAUCACCCAUGUUAGGAUAUGCGUGAAAGAAAAAAAAAGUUAAAAAGCAGAAGGAACAGAGG [JR_Exc001_Sub310] | 0.152 µM | 0.0336 µM
